The source of these data is article PMC5905600, “Structural and Immunodiagnostic Characterization of Synthetic Antigen B Subunits From Echinococcus granulosus and Their Evaluation as Target Antigens for Cyst Viability Assessment” (Clinical Infectious Diseases: An Official Publication of …, 2017).

Data set [1] has as its target Antigen B subunit 1 (AgB1), synthetic (Echinococcus granulosus). Put plainly: cross-linking; subunits with a 10-fold or a 100-fold excess of EDC; SDS-PAGE under reducing conditions; western immunoblotting with WSH serum. Background: In western blotting, separated proteins are transferred to a membrane and probed.
For data set [2] the target is unchanged. The data set is described as follows: cross-linking; each single subunit with a 100-fold molar excess of EDC; SDS-PAGE in reducing and nonreducing conditions; bands digested in situ, LC-MS/MS, cross-linked peptides identified with StavroX.
Data set [3] concerns the target Antigen B subunit 2 (AgB2), synthetic (Echinococcus granulosus). Put plainly: SEC; single synthetic subunits; 50 mM sodium phosphate, 150 mM NaCl, pH 7.4; AKTA Explorer 10; size by calibration with standard proteins (apparent molecular weight).
Data set [4] concerns the molecule itself. The data set is described as above.

Several values for one entry are separate records, joined by “and”; a condition that tells them apart may be missing. Equal values may be shown once.

As to “Antigen B subunit 1 (AgB1), synthetic (natural protein)”, the stoichiometry N (commonly the number of molecules, sites or subunits per partner or assembly) in data set [1] is 3 and 4 and 5; in data set [2], 2 and 3 and 4.
With “Antigen B subunit 2 (AgB2), synthetic (natural protein)”, in data set [3], the stoichiometry N worked out at 6.8 units.

B1: Antigen B subunit 4 (AgB4), synthetic (natural protein)
chain: KAEPERCKCLIMRKLGEIRDFFRSDPLGQKLAALGRDLTAICQKLQLKVHEVLKKYVKDLLEEEDEDDLK
B1: in data set [4], the “stoichiometry N” value is 6.

B2: Antigen B subunit 3 (AgB3), synthetic (natural protein)
chain: DDDDEVTKTKKGVMKAISEIKHFFQSDPLGKKLVEVMKDVASVCEMVRKKARMALKEYVRKLVKEDE
B2: the “stoichiometry N” value in data set [4] turned out to be 6.6 units.
